# In PMC11329725 (Nature Communications, 2024):
# T1: BRCA2 DBD (mouse, UniProt P97929 2378-3115)
# T1 sequence: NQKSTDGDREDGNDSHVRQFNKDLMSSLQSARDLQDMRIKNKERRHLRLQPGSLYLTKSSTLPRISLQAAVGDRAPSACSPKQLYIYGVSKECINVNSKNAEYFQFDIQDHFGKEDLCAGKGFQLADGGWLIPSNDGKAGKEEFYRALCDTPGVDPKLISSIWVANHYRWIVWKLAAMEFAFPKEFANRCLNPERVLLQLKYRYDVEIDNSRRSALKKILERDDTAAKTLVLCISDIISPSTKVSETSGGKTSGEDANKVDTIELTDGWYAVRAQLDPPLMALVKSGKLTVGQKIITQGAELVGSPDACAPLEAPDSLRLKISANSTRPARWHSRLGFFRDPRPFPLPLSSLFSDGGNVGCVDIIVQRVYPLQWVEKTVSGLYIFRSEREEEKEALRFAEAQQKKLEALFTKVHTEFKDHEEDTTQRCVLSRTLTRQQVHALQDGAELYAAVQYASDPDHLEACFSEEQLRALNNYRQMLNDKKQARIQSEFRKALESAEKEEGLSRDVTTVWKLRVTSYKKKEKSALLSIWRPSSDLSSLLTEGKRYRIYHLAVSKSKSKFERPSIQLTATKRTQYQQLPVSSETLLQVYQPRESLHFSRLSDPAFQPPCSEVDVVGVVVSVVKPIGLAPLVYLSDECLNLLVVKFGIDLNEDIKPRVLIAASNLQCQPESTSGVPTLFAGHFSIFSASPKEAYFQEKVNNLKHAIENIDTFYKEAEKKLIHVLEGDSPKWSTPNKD
# T2: OB23 (OB2-OB3 with tower) (human, UniProt P51587 2808-3192)
# T2 sequence: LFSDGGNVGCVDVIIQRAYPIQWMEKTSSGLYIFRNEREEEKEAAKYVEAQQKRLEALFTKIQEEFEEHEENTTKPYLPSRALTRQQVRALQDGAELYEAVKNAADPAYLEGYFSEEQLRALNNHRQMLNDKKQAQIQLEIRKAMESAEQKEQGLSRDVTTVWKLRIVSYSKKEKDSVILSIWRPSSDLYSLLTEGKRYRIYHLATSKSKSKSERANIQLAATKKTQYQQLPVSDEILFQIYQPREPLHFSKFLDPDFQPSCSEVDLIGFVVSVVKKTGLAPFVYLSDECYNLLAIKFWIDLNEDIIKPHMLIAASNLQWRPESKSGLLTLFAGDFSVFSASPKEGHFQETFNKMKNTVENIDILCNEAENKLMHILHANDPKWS
# T3: His6-HDOB1 (human BRCA2 helical domain and OB fold 1, residues 2479-2807) (human, UniProt P51587 2479-2807)
# T3 sequence: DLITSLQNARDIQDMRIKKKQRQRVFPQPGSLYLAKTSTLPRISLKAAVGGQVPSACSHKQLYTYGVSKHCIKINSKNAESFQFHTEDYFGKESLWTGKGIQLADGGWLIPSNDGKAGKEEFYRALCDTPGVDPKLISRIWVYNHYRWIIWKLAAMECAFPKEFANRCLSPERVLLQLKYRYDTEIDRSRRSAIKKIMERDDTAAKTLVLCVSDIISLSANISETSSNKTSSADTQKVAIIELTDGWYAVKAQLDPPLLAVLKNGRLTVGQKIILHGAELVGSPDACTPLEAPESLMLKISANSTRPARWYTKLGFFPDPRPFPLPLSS
# Legend:
# [1] = target: BRCA2 DBD;DSS1(1-36) (partner of DBD) (mouse;human?, UniProt P97929;P60896 2378-3115;1-36, |del37-70); experiment: EMSA
# [2] = target: T1, BRCA2 DBD; experiment: EMSA
# [3] = target: BRCA2 DBD;DSS1 R57Q (partner of DBD) (mouse;human?, UniProt P97929;P60896 2378-3115;1-70, |R57Q); experiment: EMSA
# [4] = target: BRCA2 DBD;DSS1(1-54) (partner of DBD) (mouse;human?, UniProt P97929;P60896 2378-3115;1-54, |del55-70); experiment: EMSA
# [5] = target: T2, OB23 (OB2-OB3 with tower); experiment: EMSA
# [6] = target: T3, His6-HDOB1 (human BRCA2 helical domain …); experiment: co-purification
binding result [6],Binder,binding result [1],binding result [2],binding result [3],binding result [4],Kd [5] [µM]
,Cy5 80-mer ssDNA (oligo 1) (ssDNA) DNA: TTATATCCTTTACTTTGAATTCTATGTTTAACCTTTTACTTATTTTGTATTAGCCGGACCTTATTTCAATTATGTTCAT,binds,binds,binds,binds,0.27
,Cy5 80-bp dsDNA (oligo 1/oligo 2) (dsDNA) DNA 1: TTATATCCTTTACTTTGAATTCTATGTTTAACCTTTTACTTATTTTGTATTAGCCGGACCTTATTTCAATTATGTTCAT DNA 2: ATGAACATAATTGAAATAAGGATCCGGCTAATACAAAATAAGTAAAAGGTTAAACATAGAATTCAAAGTAAAGGATATAA,binds,binds,binds,binds,
binds,"MSEKKQPVDLGLLEEDDEFEEFPAEDWAGLDEDEDAHVWEDNWDD (domain or fragment) [GST-DSS1 1-45, co-expressed with His6-HDOB1 in E. coli]",,,,,
binds,"GST-DSS1 1-54, co-expressed with His6-HDOB1 in E. coli (domain or fragment) MSEKKQPVDLGLLEEDDEFEEFPAEDWAGLDEDEDAHVWEDNWDDDNVEDDFSN",,,,,
